Experimental data from patent US20100098730A1.
One block for each substance: values may come before it.

Columns and labels:
[1] = molecular target: human FcRn (heterodimer of an alpha chain and a β2-microglobulin subunit), soluble (human) (UniProt P55899); assay: FcRn affinity at pH 6.0, as shown in FIG. 24 (BIAcore, human FcRn)
[2] = molecular target: human FcRn (heterodimer of an alpha chain and a β2-microglobulin subunit), soluble (human) (UniProt P55899); assay: SPR (BIAcore), soluble human FcRn injected over chip-coupled IgG, pH 6.0, 25 C, monovalent KD
[3] = molecular target: human FcRn (heterodimer of an alpha chain and a β2-microglobulin subunit), soluble (human) (UniProt P55899); assay: SPR, soluble human FcRn injected over IgG-coupled chip, monovalent KD, pH 6.0, 25 C
[4] = molecular target: human FcRn (heterodimer of an alpha chain and a β2-microglobulin subunit), soluble (human) (UniProt P55899); assay: SPR (BIAcore 3000), IgG injected over chip-coupled human FcRn, pH 6.0, 25 C; apparent (bivalent) KD estimated from the steady state curves of FIG. 1, Run 2
[5] = molecular target: human FcRn (heterodimer of an alpha chain and a β2-microglobulin subunit), soluble (human) (UniProt P55899); assay: SPR, bivalent IgG over human FcRn-coupled chip, steady state, apparent KD, pH 6.0, 25 C, second run (about two fold higher RU of FcRn)
[6] = molecular target: human FcRn (heterodimer of an alpha chain and a β2-microglobulin subunit), soluble (human) (UniProt P55899); assay: SPR, human FcRn; fold over wildtype, summarized from FIGS. 4 and 5
[7] = molecular target: cynomolgus monkey FcRn (cyno alpha chain and cyno β2-microglobulin), soluble (cynomolgus monkey) (UniProt Q8SPV9); assay: SPR (BIAcore 3000), soluble cyno FcRn injected over chip-coupled IgG, pH 6.0, 25 C; monovalent KD (a) determined by ratio of koff to kon
UniProt Q8SPV9, sequence (Q8SPV9 24-297 limits assumed, chain 1 of 2): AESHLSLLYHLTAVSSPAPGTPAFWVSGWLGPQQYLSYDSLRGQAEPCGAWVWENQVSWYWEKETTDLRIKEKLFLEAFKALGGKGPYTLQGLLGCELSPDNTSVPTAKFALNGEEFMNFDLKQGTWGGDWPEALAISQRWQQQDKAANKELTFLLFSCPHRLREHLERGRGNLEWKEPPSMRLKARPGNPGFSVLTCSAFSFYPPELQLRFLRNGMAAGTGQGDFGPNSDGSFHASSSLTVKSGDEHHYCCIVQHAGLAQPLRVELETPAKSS
UniProt Q8SPV9, sequence (Q8SPW0 21-119 limits assumed, chain 2 of 2, further chain): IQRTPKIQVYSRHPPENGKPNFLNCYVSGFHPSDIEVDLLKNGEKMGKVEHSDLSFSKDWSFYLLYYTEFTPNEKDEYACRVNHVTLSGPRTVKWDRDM

[8] = molecular target: cynomolgus monkey FcRn (cyno alpha chain and cyno β2-microglobulin), soluble (cynomolgus monkey) (UniProt Q8SPV9); assay: SPR (BIAcore 3000), soluble cyno FcRn injected over chip-coupled IgG, pH 6.0, 25 C
[9] = molecular target: human FcRn (heterodimer of an alpha chain and a β2-microglobulin subunit), soluble (human) (UniProt P55899); assay: SPR (BIAcore 3000), soluble human FcRn injected over chip-coupled IgG, pH 6.0, 25 C; monovalent KD (a) determined by ratio of koff to kon
[10] = molecular target: cynomolgus monkey FcRn (cyno alpha chain and cyno β2-microglobulin), soluble (cynomolgus monkey) (UniProt Q8SPV9); assay: SPR (BIAcore 3000), soluble cyno FcRn injected over chip-coupled IgG, pH 6.0, 25 C; monovalent KD (b) determined by fitting the steady state RU against concentration
[11] = molecular target: human FcRn (heterodimer of an alpha chain and a β2-microglobulin subunit), soluble (human) (UniProt P55899); assay: SPR (BIAcore 3000), soluble human FcRn injected over chip-coupled IgG, pH 6.0, 25 C
[12] = molecular target: human FcRn (heterodimer of an alpha chain and a β2-microglobulin subunit), soluble (human) (UniProt P55899); assay: SPR (BIAcore 3000), soluble human FcRn injected over chip-coupled IgG, pH 6.0, 25 C; monovalent KD (b) determined by fitting the steady state RU against concentration
[13] = molecular target: human FcRn (heterodimer of an alpha chain and a β2-microglobulin subunit), soluble (human) (UniProt P55899); assay: SPR (BIAcore 3000), IgG injected over chip-coupled human FcRn, pH 6.0, 25 C; apparent (bivalent) KD estimated from the steady state curves of FIG. 1, Run 1

- fold higher FcRn affinity at pH 6.0 compared to the wildtype antibody [1]: 3 fold
Substance: IgG1 variant N434A of a different human antibody

- Kd [2]: 570 nM
Substance: N434A (antibody)

- Kd [2]: 44 nM
Substance: N434W (antibody)

- Kd [2]: 3.7 nM
- fold improvement of affinity over the wild-type IgG1 [3]: 450 fold
Substance: anti-HER2 (trastuzumab) IgG1 variant M252Y/V308P/N434Y (antibody)

- Kd [4]: 250 nM
Substance: anti-VEGF (Bevacizumab) IgG1 variant T307Q (antibody)

- Kd [4]: 90 nM
Substance: anti-VEGF (Bevacizumab) IgG1 variant T307Q/A378V (antibody)

- Kd [7]: 66.6 nM
- Kd [9]: 72 nM
- Kd [10]: 69.9 nM
- Kd [4]: 8 nM
- Kd [12]: 76 nM
Substance: anti-VEGF (Bevacizumab) IgG1 variant V308P/N434A (antibody)

Continued, substance first:

Substance: anti-VEGF (Bevacizumab) IgG1 variant A378V (antibody)
- Kd [4]: 500 nM

Substance: anti-VEGF (Bevacizumab) IgG1 variant N434A (antibody)
- Kd [5]: 250 nM

Substance: anti-VEGF (Bevacizumab) IgG1 variant N434H (antibody)
- Bivalent Affinity Fold increase at pH 6.0 [6]: 9 fold
- Bivalent Affinity Fold increase at pH 7.4 [6]: 6 fold
- Monovalent Affinity Fold increase at pH 6.0 [6]: 3 fold
- Kd [7]: 450 nM
- koff [8]: 0.218 s⁻¹
- kon [8]: 480000 M⁻¹ s⁻¹
- Kd [9]: 420 nM
- Kd [10]: 470 nM
- koff [11]: 0.166 s⁻¹
- kon [11]: 400000 M⁻¹ s⁻¹
- Kd [4]: 100 nM
- Kd [12]: 470 nM

Substance: anti-VEGF (Bevacizumab) IgG1 variant T307Q/A378V/Y436I (antibody)
- Kd [4]: 30 nM

Substance: anti-VEGF (Bevacizumab) IgG1 variant T307Q/E380A/N434S (antibody)
- Kd [7]: 153 nM
- Kd [9]: 146 nM
- Kd [10]: 160 nM
- Kd [12]: 148 nM

Substance: anti-VEGF (Bevacizumab) IgG1 variant T307Q/N434A (antibody)
- Kd [7]: 240 nM
- Kd [9]: 240 nM
- Kd [13]: 180 nM
- Kd [10]: 241 nM
- Kd [12]: 258 nM

Substance: anti-VEGF (Bevacizumab) IgG1 variant T307Q/Y436I (antibody)
- Kd [4]: 70 nM
